{"source": "patent US20240352452A1", "assay_in_all_cases": "CasPlay immunoprecipitation of the virome-wide library (245,002 barcodes), z-score of gRNA barcodes", "key": {"[1]": {"target": "dCas9-FLAG peptide fusion (CasPlay library member, C-terminal 6His tag) (Streptococcus pyogenes) (UniProt Q99ZW2)"}, "[2]": {"target": "dCas9-HA epitope tag control peptide (CasPlay virome library) (Streptococcus pyogenes) (UniProt Q99ZW2)"}, "[3]": {"target": "dCas9-myc epitope tag control peptide (CasPlay virome library) (Streptococcus pyogenes) (UniProt Q99ZW2)"}}}
{"substance": "anti-FLAG M2 antibody", "values": [{"measurement": "rank of z-score among all peptides of the library", "setting": "[1]", "value": "< 0.2", "unit": "%"}]}
{"substance": "anti-HA antibody (Cell Signaling C29F4)", "values": [{"measurement": "rank of z-score among all peptides of the library", "setting": "[2]", "value": "< 0.2", "unit": "%"}]}
{"substance": "anti-myc antibody (Abcam ab9106)", "values": [{"measurement": "rank of z-score among all peptides of the library", "setting": "[3]", "value": "< 0.2", "unit": "%"}]}
